According to patent US7374891B2, “Methods to identify compounds that modulate rage” (TransTech Pharma, Inc., priority 2000, dated 2008):
Read-outs that look alike come from different tables or passages of the source.

Molecular target: T1, S-100b (Homo sapiens, UniProt P04271)
T1 sequence (P04271 2-92 limits assumed): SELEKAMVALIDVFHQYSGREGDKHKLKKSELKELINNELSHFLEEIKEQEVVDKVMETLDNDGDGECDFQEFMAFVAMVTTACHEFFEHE
Assay: Saturation binding of sRAGE to immobilized S-100b (ELISA, Scatchard analysis)
Description: Generally, the protocol for detection of RAGE modulators is as follows. RAGE ligand (e.g. S-100b, β-amyloid, CML) is diluted to 5 μg/ml in buffer A (fixing buffer) (100 mM Na2CO3/NaHCO3, pH 9.8) and 100 μl added to microtiter plate wells and allowed to incubate overnight at 4° C. to allow the ligand to become fixed to the surface of the wells. Wells are then washed 3 times with 400 μl/well buffer C (wash buffer) (20 mM Imidazole, 150 mM NaCl, pH 7.2), with a 5 second soak in buffer C between each wash. Buffer B (blocking buffer) (50 mM Imidazole pH 7.2, 5% BSA, 5 mM CaCl2, 5 mM MgCl2) is then added to the wells and allowed to incubate for 2 hours at 37° C. to block nonspecific protein binding sites. The blocking buffer is then aspirated from the wells, and the plate washed 3 times (400 μl/well) with buffer C, with a 5 second soak in buffer C between each wash. The compound of interest, 25 μl dissolved in 2% DMSO FAC (Final Assay Concentration ) and sRAGE (75 μl) (2.2×10^−4 mg/ml FAC) are then added to each well, and incubated 1 hour at 37° C. Meanwhile, polyclonal antibody or monoclonal antibody for sRAGE (e.g. 3.0×10^−3 mg/ml and 1.9×10^−4 mg/ml FAC, respectively), biotinylated goat F (ab′)2 anti-mouse IgG (e.g. 8.0×10^−4mg/ml FAC) (Biosource International, Camarillo, Calif. (TAGO)), and alkaline phosphatase labeled streptavidin (3.0×10^−3 mg/ml FAC) (ZYMED, San Francisco, Calif.) are added to 5 ml of buffer D (complex buffer) (50 mM Imidazole, pH 7.2; 0.2% BSA, 5 mM CaCl2, 5 mM MgCl2) in a 15 ml conical tube and allowed to incubate 30 minutes at room temperature.
The solution containing sRAGE and the compound of interest is then aspirated from each well, and after 3 washes with wash buffer, with a 5 second soak between each wash, the anti-sRAGE:IgG:streptavidin-alkaline phosphatase complex is added to each well (100 μl complex per well). After 1 hour at room temperature, the solution in each well is aspirated, and the wells washed 3 times, with 5 second soaks between each wash.
The alkaline phosphatase substrate, para-nitrophenyl phosphate (pNPP) (1 mg/ml in 1 M diethanolamine, pH 9.8), is added and the color allowed to develop for 1 hr in the dark. After the addition of 10 μl stop solution per well (0.5 N NaOH; 50% methanol), the OD405 is measured.
In the experiment shown in FIG. 10, wells were coated by incubation with 500 ng/well S-100b overnight, and after washing, sRAGE diluted in buffer D added to the final concentrations shown. […]
The utility of the assay for detecting compounds which antagonize both low and high affinity RAGE binding domains is shown in FIGS. 8-11. […] The amount of sRAGE bound to the immobilized ligand was detected using anti-sRAGE polyclonal or monoclonal antibody (3.0×10^−3 mg/ml and 1.9×10^−4 mg/ml FAC, respectively) and the development system as described in Example 1. Plots were linearized by means of Scatchard analysis and values for Kd and Bmax determined. Statistical analysis of experimental precision was determined by utilizing GraghPad Prisam version 3 software (GraphPad Software, Inc. San Diego, Calif.).
Both low and high affinity binding of sRAGE to S-100b are detected using the assay method of the invention. […] After washing, sRAGE comprising a final concentration ranging from about 0.3 to 10 nM was added to each well, and after 1 hour at 37° C., bound sRAGE was measured by the addition of polyclonal antibody complex. […]

Kd (S-100b 50 ng/well, sRAGE about 0.3 to 10 nM, FIG. 8, read-out: Kd, high affinity binding component): ~6 nM
Kd (S-100b 100 ng/well, sRAGE about 0.3 to 10 nM, FIG. 9, read-out: Kd, high affinity binding component): ~2 nM
Kd (S-100b 500 ng/well, four separate determinations, FIG. 10, read-out: Kd value): 60 nM
Kd (S-100b 500 and 100 ng/well, sRAGE 24 to 480 nM and 5 to 80 nM, FIGS. 10 and 11, read-out: Kd, low affinity binding site): ~60 nM
Kd (sRAGE 0.3 to 10 nM, FIGS. 8 and 9, read-out: Kd, high affinity binding site): 2 to 6 nM
Substance: sRAGE: soluble, extracellular portion of RAGE, as defined by the amino acid sequence SEQ ID NO: 2
